Source: patent US20190077860A1 (EISAI R AND D MANAGEMENT, published 2019)
Numbering of substitutions follows the chain as printed.

T1: human EphB4 extracellular region-SEAP-His protein (human, UniProt P54760 16-539)
T1 construct: extracellular domain; also called hEphB4-SEAP-His
T1 sequence (looked up): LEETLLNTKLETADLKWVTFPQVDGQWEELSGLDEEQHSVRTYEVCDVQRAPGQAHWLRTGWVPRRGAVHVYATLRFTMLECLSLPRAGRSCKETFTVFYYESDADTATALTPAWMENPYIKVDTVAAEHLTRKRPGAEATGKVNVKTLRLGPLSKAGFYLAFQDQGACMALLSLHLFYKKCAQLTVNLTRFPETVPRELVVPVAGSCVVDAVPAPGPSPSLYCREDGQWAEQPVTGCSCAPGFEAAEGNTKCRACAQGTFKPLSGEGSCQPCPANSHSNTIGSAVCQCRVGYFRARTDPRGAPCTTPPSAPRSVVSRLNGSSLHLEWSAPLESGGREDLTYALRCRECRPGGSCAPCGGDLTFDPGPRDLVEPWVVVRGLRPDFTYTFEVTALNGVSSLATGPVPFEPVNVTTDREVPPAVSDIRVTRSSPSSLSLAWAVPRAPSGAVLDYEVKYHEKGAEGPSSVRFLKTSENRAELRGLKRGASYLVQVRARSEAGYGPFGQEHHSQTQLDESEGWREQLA

T2: human EphA3 extracellular region-SEAP-His protein (human, UniProt P29320 21-541)
T2 construct: extracellular domain; also called hEphA3-SEAP-His
T2 sequence (looked up): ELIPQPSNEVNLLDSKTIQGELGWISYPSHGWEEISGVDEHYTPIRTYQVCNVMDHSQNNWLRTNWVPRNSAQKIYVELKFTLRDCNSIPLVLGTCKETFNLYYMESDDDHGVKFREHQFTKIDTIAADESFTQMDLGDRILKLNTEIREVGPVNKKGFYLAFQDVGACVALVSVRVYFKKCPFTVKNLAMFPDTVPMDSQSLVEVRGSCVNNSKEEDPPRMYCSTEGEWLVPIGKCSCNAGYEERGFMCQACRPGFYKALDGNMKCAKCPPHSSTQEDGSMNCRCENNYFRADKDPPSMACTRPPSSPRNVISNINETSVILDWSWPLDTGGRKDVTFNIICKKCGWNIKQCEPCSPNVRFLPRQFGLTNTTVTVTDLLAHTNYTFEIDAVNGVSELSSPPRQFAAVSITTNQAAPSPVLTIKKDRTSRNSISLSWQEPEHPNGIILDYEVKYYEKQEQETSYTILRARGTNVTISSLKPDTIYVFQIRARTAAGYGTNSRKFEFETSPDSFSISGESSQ

T3: human EphA8 extracellular region-SEAP-His protein (human, UniProt P29322 28-542)
T3 construct: extracellular domain; also called hEphA8-SEAP-His
T3 sequence (looked up): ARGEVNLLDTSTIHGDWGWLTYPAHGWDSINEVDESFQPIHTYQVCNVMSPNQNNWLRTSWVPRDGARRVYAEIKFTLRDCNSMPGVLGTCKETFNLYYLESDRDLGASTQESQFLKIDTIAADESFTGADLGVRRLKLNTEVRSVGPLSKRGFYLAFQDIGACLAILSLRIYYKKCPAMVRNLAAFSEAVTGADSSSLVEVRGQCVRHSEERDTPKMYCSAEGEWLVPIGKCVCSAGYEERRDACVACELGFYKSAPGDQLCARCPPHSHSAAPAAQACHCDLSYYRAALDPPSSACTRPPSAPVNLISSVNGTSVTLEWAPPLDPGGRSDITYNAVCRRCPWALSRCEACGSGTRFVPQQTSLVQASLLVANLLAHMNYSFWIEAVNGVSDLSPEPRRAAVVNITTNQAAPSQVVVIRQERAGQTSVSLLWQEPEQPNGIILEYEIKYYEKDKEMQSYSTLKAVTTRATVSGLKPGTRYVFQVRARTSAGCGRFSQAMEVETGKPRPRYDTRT

T4: human EphA7 extracellular region-SEAP-His protein (human, UniProt Q15375 28-555)
T4 construct: extracellular domain; also called hEphA7-SEAP-His
T4 sequence (looked up): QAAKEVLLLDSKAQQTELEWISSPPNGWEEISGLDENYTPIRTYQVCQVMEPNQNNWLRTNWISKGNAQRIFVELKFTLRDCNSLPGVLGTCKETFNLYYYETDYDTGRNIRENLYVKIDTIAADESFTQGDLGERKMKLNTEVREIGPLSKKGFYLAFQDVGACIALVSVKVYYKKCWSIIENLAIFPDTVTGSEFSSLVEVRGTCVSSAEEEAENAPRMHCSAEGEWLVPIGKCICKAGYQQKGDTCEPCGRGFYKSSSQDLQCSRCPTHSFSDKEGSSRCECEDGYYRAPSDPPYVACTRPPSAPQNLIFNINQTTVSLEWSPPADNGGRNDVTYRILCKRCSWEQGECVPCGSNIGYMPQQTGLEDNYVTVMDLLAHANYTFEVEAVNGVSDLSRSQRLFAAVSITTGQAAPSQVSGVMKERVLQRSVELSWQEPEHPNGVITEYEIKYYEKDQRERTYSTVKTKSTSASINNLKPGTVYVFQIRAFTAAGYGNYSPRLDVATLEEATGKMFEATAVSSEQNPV

B1: humanized antibody No. 86 (antibody, human IgG1, kappa)
heavy: QIQLVQSGSELKKPGASVKVSCKASGYTFTDYSMHWVRQAPGQGLKWMGWINTETGEPTYADDFKGRFVFSLDTSVSTAYLQISSLKAEDTAVYYCARIPLYYYGSRYWYFDVWGQGTTVTVSSASTKGPSVFPLAPSSKSTSGGTAALGCLVKDYFPEPVTVSWNSGALTSGVHTFPAVLQSSGLYSLSSVVTVPSSSLGTQTYICNVNHKPSNTKVDKRVEPKSCDKTHTCPPCPAPPAAAPSVFLFPPKPKDTLMISRTPEVTCVVVDVSHEDPEVQFNWYVDGVEVHNAKTKPREEQFNSTFRVVSVLTVVHQDWLNGKEYKCKVSNKGLPAPIEKTISKTKGQPREPQVYTLPPSREEMTKNQVSLTCLVKGFYPSDIAVEWESNGQPENNYKTTPPMLDSDGSFFLYSKLTVDKSRWQQGNVFSCSVMHEALHNHYTQKSLSLSPG
light: DIQMTQSPSSLSASVGDRVTITCRASENIYRNLAWYQQKPGKAPKLLLYAATNLADGVPSRFSGSGSGTDYTLTISSLQSEDFATYYCQHFWGTPWTFGQGTKVEIKRTVAAPSVFIFPPSDEQLKSGTASVVCLLNNFYPREAKVQWKVDNALQSGNSQESVTEQDSKDSTYSLSSTLTLSKADYEKHKVYACEVTHQGLSSPVTKSFNRGEC
notes: human Ig kappa; also called L1-5/HK4
B2: humanized antibody No. 140 (antibody, human IgG2)
heavy: QVQLVQSGSELKKPGASVKVSCKASGYTFTDYSMHWVRQAPGQGLKWMGWINTETGEPTYAQGFTGRFVFSLDTSVSTAYLQISSLKAEDTAVYYCARIPLYYYGSRYWYFDVWGQGTTVTVSSASTKGPSVFPLAPSSRSTSESTAALGCLVKDYFPEPVTVSWNSGALTSGVHTFPAVLQSSGLYSLSSVVTVPSSNFGTQTYTCNVDHKPSNTKVDKTVERKSCVECPPCPAPPAAAPSVFLFPPKPKDTLMISRTPEVTCVVVDVSHEDPEVQFNWYVDGVEVHNAKTKPREEQFNSTFRVVSVLTVVHQDWLNGKEYKCKVSNKGLPAPIEKTISKTKGQPREPQVYTLPPSREEMTKNQVSLTCLVKGFYPSDIAVEWESNGQPENNYKTTPPMLDSDGSFFLYSKLTVDKSRWQQGNVFSCSVMHEALHNHYTQKSLSLSPG
light: B1 light with L48V, S80P
notes: human Ig kappa; also called L1-4/HA2
B3: humanized antibody No. 91 (antibody, human IgG1, kappa)
heavy: B1 heavy with I2V
light: B1 light with K45Q, S80P
notes: human Ig kappa; also called L1-6/HK2
B4: humanized antibody No. 87 (antibody, human IgG1, kappa)
heavy: B1 heavy with I2V, K46E, D62Q, D63G, K65T
light: B1 light with K45Q, S80P
notes: human Ig kappa; also called L1-6/HA1
B5: humanized antibody No. 138 (antibody, human IgG2)
heavy: B2 heavy with V2I
light: B1 light with L48V, S80P
notes: human Ig kappa; also called L1-4/HA4
B6: humanized antibody No. 139 (antibody, human IgG2)
heavy: B2 heavy with K46E
light: B1 light with L48V, S80P
notes: human Ig kappa; also called L1-4/HA1
B7: humanized antibody No. 90 (antibody, human IgG1, kappa)
heavy: B1 heavy with I2V, K46E
light: B1 light with K45Q, S80P
notes: human Ig kappa; also called L1-6/HK1
B8: humanized antibody No. 92 (antibody, human IgG1, kappa)
heavy: B1 heavy
light: B1 light with K45Q, S80P
notes: human Ig kappa; also called L1-6/HK4
B9: humanized antibody No. 88 (antibody, human IgG1, kappa)
heavy: B1 heavy with I2V, D62Q, D63G, K65T
light: B1 light with K45Q, S80P
notes: human Ig kappa; also called L1-6/HA2
B10: humanized antibody No. 89 (antibody, human IgG1, kappa)
heavy: B1 heavy with D62Q, D63G, K65T
light: B1 light with K45Q, S80P
notes: human Ig kappa; also called L1-6/HA4

molecular target: T5, human EphA5 extracellular region-SEAP-His protein (human, UniProt P54756 25-573); experiment: ELISA
T5 construct: extracellular domain; also called hEphA5-SEAP-His
T5 sequence (P54756 25-573): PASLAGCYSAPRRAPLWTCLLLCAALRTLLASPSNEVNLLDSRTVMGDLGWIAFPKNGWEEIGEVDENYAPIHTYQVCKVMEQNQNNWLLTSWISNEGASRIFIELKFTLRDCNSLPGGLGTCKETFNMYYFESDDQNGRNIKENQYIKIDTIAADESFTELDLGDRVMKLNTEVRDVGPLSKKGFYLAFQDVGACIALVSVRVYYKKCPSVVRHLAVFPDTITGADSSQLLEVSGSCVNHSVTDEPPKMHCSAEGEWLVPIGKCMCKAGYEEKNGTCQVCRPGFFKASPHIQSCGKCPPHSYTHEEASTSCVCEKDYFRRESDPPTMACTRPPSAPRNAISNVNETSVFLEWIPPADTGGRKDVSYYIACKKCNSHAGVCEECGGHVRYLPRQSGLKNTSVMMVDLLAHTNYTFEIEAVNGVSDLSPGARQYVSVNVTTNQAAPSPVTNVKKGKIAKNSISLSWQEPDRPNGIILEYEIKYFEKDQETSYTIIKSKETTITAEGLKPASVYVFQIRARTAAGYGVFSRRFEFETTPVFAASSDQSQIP

A450 as % of hEphA4-SEAP-His [%] | Binder
5.7 | B1
5.4 | B2
6.4 | B3
5.4 | B4
5.1 | B5
5.7 | B6
5.1 | B7
6.8 | B8
5.9 | B9
5.8 | B10

molecular target: T1, human EphB4 extracellular …; experiment: ELISA

A450 as % of hEphA4-SEAP-His [%] | Binder
5.8 | B1
5.4 | B2
6.2 | B3
5.5 | B4
5.2 | B5
5.7 | B6
5 | B7
6.6 | B8
6.1 | B9
5.8 | B10

molecular target: T2, human EphA3 extracellular …; experiment: ELISA

A450 as % of hEphA4-SEAP-His [%] | Binder
5.8 | B1
5.5 | B2
6.6 | B3
5.5 | B4
4.9 | B5
5.9 | B6
5.2 | B7
6.5 | B8
6 | B9
5.8 | B10

molecular target: T6, human EphA2 extracellular region-SEAP-His protein (human, UniProt P29317 24-537); experiment: ELISA
T6 construct: extracellular domain; also called hEphA2-SEAP-His
T6 sequence (P29317 24-537): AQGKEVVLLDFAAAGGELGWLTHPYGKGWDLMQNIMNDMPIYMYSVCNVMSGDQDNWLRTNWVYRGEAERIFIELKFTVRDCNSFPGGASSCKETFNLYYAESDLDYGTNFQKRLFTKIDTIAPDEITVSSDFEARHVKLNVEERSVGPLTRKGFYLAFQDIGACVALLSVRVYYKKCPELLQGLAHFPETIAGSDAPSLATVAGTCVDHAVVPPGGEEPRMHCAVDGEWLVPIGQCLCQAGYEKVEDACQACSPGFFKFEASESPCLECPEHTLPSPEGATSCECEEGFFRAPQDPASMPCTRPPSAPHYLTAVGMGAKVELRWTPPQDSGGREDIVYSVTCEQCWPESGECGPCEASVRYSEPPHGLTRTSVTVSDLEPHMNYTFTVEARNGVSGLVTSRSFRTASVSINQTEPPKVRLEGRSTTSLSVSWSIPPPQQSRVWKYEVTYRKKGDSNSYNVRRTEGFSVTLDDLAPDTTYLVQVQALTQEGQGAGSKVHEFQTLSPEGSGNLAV

A450 as % of hEphA4-SEAP-His [%] | Binder
5.7 | B1
5.3 | B2
6.1 | B3
5.4 | B4
5 | B5
5.9 | B6
5.2 | B7
6.9 | B8
5.8 | B9
5.6 | B10

molecular target: T3, human EphA8 extracellular …; experiment: ELISA

A450 as % of hEphA4-SEAP-His [%] | Binder
5.7 | B1
5.4 | B2
6.2 | B3
5.7 | B4
5.4 | B5
6 | B6
5.4 | B7
6.7 | B8
6.2 | B9
5.7 | B10

molecular target: T4, human EphA7 extracellular …; experiment: ELISA

A450 as % of hEphA4-SEAP-His [%] | Binder
5.6 | B1
5.2 | B2
5.6 | B3
5.3 | B4
4.9 | B5
5.5 | B6
4.9 | B7
6.4 | B8
6 | B9
5.4 | B10
